# Measurements from publication PMC6768651, “A ubiquitin-like domain controls protein kinase D dimerization and activation by trans-autophosphorylation” (The Journal of Biological Chemistry, 2019).
# Changes are numbered by the printed parent chain. In names and notes the source's numbering stands.
# B1: DKF-1 ULD (DKF-1^1–94) [C. elegans] / Atto488-labeled DKF-1 ULD^R42C [modified: Atto488 (maleimide-conjugated) on cysteine 42; Atto488 (maleimide-conjugated) on cysteine 42] [C. elegans] (parent complex)
# chain 1: MDGSQGSTDYGDHVVLRYGGTREMVPLIRHEQMLDMLMERARQIVQGFGNLDTRNMYLFRHEYNSPTLLYPITSASQITSGSILEIILVDRTEA
# chain 2: B1 chain 1 with R42C
# Variants of: B1
# Assay: fluorescence anisotropy; highest titration point: ULD F59E about 27 µM; parent value is the highest ULD WT point, about 20 µM; parent: 0.024; read off a plot
row,Variant,response
1,chain 1 F59E,~0.003
